These results are taken from patent US20120192301.

Some results are limits rather than exact numbers.

In data set [1] the test system is SBS 26323 ZFN (engineered). As to the kind of experiment: cell_activity. As to conditions: Cel-I indels, pair 26323/26334, K562, no donor.
Data set [2] relates to SBS 26334 ZFN (engineered). As to the kind of experiment: cell_activity. The note with it: Cel-I indels, pair 26323/26334, K562, no donor.

For “CACACCATGCACCACTCCCTCCTTGGTT (double strand) [SNCA site 37 (26323/26327/26331)]”, the activity in data set [1] was less than 45%.
“AACAGGTAAGCTCCATTGTGCTTATATC (double strand) [SNCA site 36 (25358/26334)]” yielded an activity in data set [2] of less than 45%.
